Series [1] concerns the molecule itself. As to the kind of experiment: crystal structure; sitting drop vapour diffusion at 18 °C; spacegroup P6_(5)22, three copies in the asymmetric unit arranged as two dimer interfaces.
Series [2] deals with the molecule itself. As to the kind of experiment: AUC; multispeed sedimentation equilibrium (18,000, 21,000, 26,000 rpm), Acetate Buffer, global fit to a monomer-dimer-tetramer model; constant of: dimer to monomers (KD1-2).
Series [3] concerns the molecule itself. As to the kind of experiment: AUC; multispeed sedimentation equilibrium (18,000, 21,000, 26,000 rpm), Acetate Buffer, global fit to a monomer-dimer-tetramer model; constant of: tetramer to dimers (KD2-4).
Series [4] deals with the molecule itself. Description: SEC-MALLS; 100-400 µM loaded in 100 µL on Superdex INCREASE 200 10/300 GL in Acetate Buffer (50 mM sodium acetate, 300 mM NaCl, 1 mM TCEP pH 5.0), 1.0 mL/min.
Series [5] deals with the molecule itself. Description: AUC; sedimentation velocity, 50,000 rpm, 293 K, Acetate Buffer, interference data, 30-181 µM, C(S) analysis.

B1: p18m_AUG1, Ty1 Gag residues M249-N355 (crystallised) (domain or fragment, S. cerevisiae, UniProt P08405 249-355, looked up)
chain: MKILSKSIEKMQSDTQEANDIVTLANLQYNGSTPADAFETKVTNIIDRLNNNGIHINNKVACQLIMRGLSGEYKFLRYTRHRHLNMTVAELFLDIHAIYEEQQGSRN
notes: S. cerevisiae Ty1A (Ty1 Gag), Uniprot P08405, residues M249-N355, starting at the AUG1 methionine; Residues D262 to Q351 are visible in the map; source: E. coli BL21 (DE3), purified (Ni-NTA, carboxypeptidase A digestion, gel filtration)
With B1, the binding result in series [1] is recorded as “binds”.

B2: p18m-I269F (p18m_AUG2-I269F) (domain or fragment, S. cerevisiae, UniProt P08405 259-355, looked up)
chain: MQSDTQEANDFVTLANLQYNGSTPADAFETKVTNIIDRLNNNGIHINNKVACQLIMRGLSGEYKFLRYTRHRHLNMTVAELFLDIHAIYEEQQGSRN
notes: S. cerevisiae Ty1A (Ty1 Gag), Uniprot P08405, residues M259-N355 with I269F; source: E. coli BL21 (DE3), purified
In the case of B2, the dissociation constant Kd is 0.74 µM in series [2] and 45.3 µM in series [3]. Moreover, the “stoichiometry N” value in series [4] was 2.

B3: p18m-A273V (p18m_AUG2-A273V), solution studies (domain or fragment, S. cerevisiae, UniProt P08405 259-355, looked up)
chain: MQSDTQEANDIVTLVNLQYNGSTPADAFETKVTNIIDRLNNNGIHINNKVACQLIMRGLSGEYKFLRYTRHRHLNMTVAELFLDIHAIYEEQQGSRN
notes: S. cerevisiae Ty1A (Ty1 Gag), Uniprot P08405, residues M259-N355 with A273V; Tag removal is described only for the crystallographic sample; source: E. coli BL21 (DE3), purified
Regarding B3, the Kd was determined as 0.34 µM in series [2] and 51.8 µM in series [3]. Moreover, the “stoichiometry N” value in series [5] was 2.

B4: p18m_AUG2-A273C (domain or fragment, S. cerevisiae, UniProt P08405 259-355, looked up)
chain: MQSDTQEANDIVTLCNLQYNGSTPADAFETKVTNIIDRLNNNGIHINNKVACQLIMRGLSGEYKFLRYTRHRHLNMTVAELFLDIHAIYEEQQGSRN
notes: S. cerevisiae Ty1A (Ty1 Gag), Uniprot P08405, residues M259-N355 with A273C; source: bacterially expressed (E. coli), purified
Take B4: the “stoichiometry N” value in series [4] is 2.

B5: Seleno-methionine p18m_AUG2 (crystallised) (domain or fragment, S. cerevisiae, UniProt P08405 259-355, looked up)
chain: MQSDTQEANDIVTLANLQYNGSTPADAFETKVTNIIDRLNNNGIHINNKVACQLIMRGLSGEYKFLRYTRHRHLNMTVAELFLDIHAIYEEQQGSRN
modifications: seleno-methionine substituted
notes: S. cerevisiae Ty1A (Ty1 Gag), Uniprot P08405, residues M259-N355; also called Se-Met p18m_(AUG2); source: E. coli B834 (DE3) in seleno-methionine medium, purified (Ni-NTA, gel filtration in Acetate Buffer)
Take B5: the binding result in series [1] was “binds”.

B6: p18m-F323S (domain or fragment, S. cerevisiae, UniProt P08405 259-355, looked up)
chain: MQSDTQEANDIVTLANLQYNGSTPADAFETKVTNIIDRLNNNGIHINNKVACQLIMRGLSGEYKSLRYTRHRHLNMTVAELFLDIHAIYEEQQGSRN
notes: S. cerevisiae Ty1A (Ty1 Gag), Uniprot P08405, with F323S; also called Dimer-2 interface-mutant p18m-F323S; source: E. coli BL21 (DE3), purified
B6: the “stoichiometry N” value in series [4] is 2.

B7: p18m (p18m_AUG2), Ty1 Gag residues M259-N355 (domain or fragment, S. cerevisiae, UniProt P08405 259-355, looked up)
chain: MQSDTQEANDIVTLANLQYNGSTPADAFETKVTNIIDRLNNNGIHINNKVACQLIMRGLSGEYKFLRYTRHRHLNMTVAELFLDIHAIYEEQQGSRN
notes: S. cerevisiae Ty1A (Ty1 Gag), Uniprot P08405, residues M259-N355, starting at the AUG2 methionine; also called WT p18m; source: E. coli BL21 (DE3), purified (Ni-NTA, gel filtration in Acetate Buffer)
As for B7, the Kd in series [2] was 0.73 µM; in series [3], 43.2 µM. Besides, in series [4], the “stoichiometry N” value worked out at 2.

Usually Kd stands for a measure of binding affinity in units of concentration. A higher Kd goes with lower affinity. As usually defined, the stoichiometry N is the number of molecules, sites or subunits per partner or assembly.

(Values after publication PMC8458377 (Nature Communications, 2021).)
